# Results taken from PMC4902928, “Molecular characterization of flavanone 3-hydroxylase gene and flavonoid accumulation in two chemotyped safflower lines in response to methyl jasmonate stimulation” (BMC Plant Biology, 2016).
# Test system: T1, O=C1C[C@@H](c2ccc(O)cc2)Oc2cc(O)cc(O)c21
# T1 construct: MBP fusion (pMAL-c5X) from E. coli BL21(DE3)pLysS, MBP tag cut off by factor Xa
# Test: UPLC-Q-TOF/MS of dihydrokaempferol formed; Michaelis-Menten fit
# Assay type: biochemical, Carthamus tinctorius
# Details: 1 mM 2-oxoglutaric acid, 40 μM FeSO4, 2 mg/ml ascorbic acid, 100 mM tricine pH 7.5, 30 °C, naringenin 10-800 μM, unit misprinted as 'Mm'
# Chain of CtF3H (Carthamus tinctorius) (chain, as listed by the source): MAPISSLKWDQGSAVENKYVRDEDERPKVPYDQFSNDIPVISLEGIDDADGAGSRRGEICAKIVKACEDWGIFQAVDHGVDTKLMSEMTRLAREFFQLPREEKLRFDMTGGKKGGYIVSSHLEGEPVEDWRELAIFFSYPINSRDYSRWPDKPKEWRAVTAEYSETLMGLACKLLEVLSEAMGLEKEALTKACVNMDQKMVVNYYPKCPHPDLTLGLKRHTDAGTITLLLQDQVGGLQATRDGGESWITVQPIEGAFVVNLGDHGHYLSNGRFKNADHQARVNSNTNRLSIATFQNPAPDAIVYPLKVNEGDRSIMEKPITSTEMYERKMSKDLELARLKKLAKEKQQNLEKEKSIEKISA
substance,measurement,value
CtF3H (Carthamus tinctorius),Km,43.75 ± 7.12 µM
